Reference: the Immune Epitope Database (IEDB)

Key:
HLA-B*39:01 = test: IEDB peptide-MHC binding, purified MHC/competitive/fluorescence; filed as Kd, often an IC50 or EC50 that approximates it; ≥ and ≤ were set here for values at or beyond the usual limits of such assays; settings: source organism: Influenza A virus (A/ruddy turnstone/Delaware/67/1998(H12N4))
HLA-B*57:01 [1] = test: as above; settings: source organism: Influenza A virus (A/ruddy turnstone/Delaware/67/1998(H12N4))
HLA-B*18:01 [2] = test: as above; settings: source organism: Influenza A virus (A/ruddy turnstone/Delaware/67/1998(H12N4))
HLA-B*27:03 = test: as above; settings: source organism: Influenza A virus (A/ruddy turnstone/Delaware/67/1998(H12N4))
HLA-A*69:01 [3] = test: as above; settings: source organism: Influenza A virus (A/ruddy turnstone/Delaware/67/1998(H12N4))
HLA-A*26:01 = test: as above; settings: source organism: Influenza A virus (A/ruddy turnstone/Delaware/67/1998(H12N4))
HLA-B*51:01 = test: as above; settings: source organism: Influenza A virus (A/ruddy turnstone/Delaware/67/1998(H12N4))
HLA-B*46:01 [4] = test: as above; settings: source organism: Influenza A virus (A/ruddy turnstone/Delaware/67/1998(H12N4))
HLA-A*02:12 = test: IEDB peptide-MHC binding, purified MHC/direct/fluorescence; filed as Kd, often an IC50 or EC50 that approximates it; ≥ and ≤ were set here for values at or beyond the usual limits of such assays; settings: source organism: Influenza A virus (A/ruddy turnstone/Delaware/67/1998(H12N4))
HLA-A*02:19 [5] = test: as above; settings: source organism: Influenza A virus (A/ruddy turnstone/Delaware/67/1998(H12N4))
HLA-A*11:01 = test: as above
HLA-A*02:03 = test: as above; settings: source organism: Influenza A virus (A/ruddy turnstone/Delaware/67/1998(H12N4))
HLA-A*68:02 = test: as above; settings: source organism: Influenza A virus (A/ruddy turnstone/Delaware/67/1998(H12N4))
HLA-A*02:19 [6] = test: IEDB peptide-MHC binding, purified MHC/competitive/fluorescence; filed as Kd, often an IC50 or EC50 that approximates it; ≥ and ≤ were set here for values at or beyond the usual limits of such assays; settings: source organism: Burkholderia mallei SAVP1
HLA-A*02:01 [7] = test: as above; settings: source organism: Burkholderia mallei SAVP1
HLA-B*57:01 [8] = test: IEDB peptide-MHC binding, purified MHC/direct/fluorescence; filed as Kd, often an IC50 or EC50 that approximates it; ≥ and ≤ were set here for values at or beyond the usual limits of such assays
HLA-B*15:17 = test: as above
HLA-B*07:02 = test: as above
HLA-B*15:01 = test: as above
HLA-B*58:01 = test: as above
HLA-A*02:01 [9] = test: as above
HLA-A*03:01 = test: as above
HLA-A*01:01 = test: as above
HLA-B*27:05 = test: as above
HLA-B*40:01 = test: as above; settings: source organism: Bacillus anthracis
HLA-B*48:01 = test: as above; settings: source organism: Bacillus anthracis
HLA-B*18:01 [10] = test: as above; settings: source organism: Bacillus anthracis
HLA-A*69:01 [11] = test: as above; settings: source organism: Bacillus anthracis
HLA-B*08:01 = test: as above; settings: source organism: Bacillus anthracis str. A2012
HLA-B*46:01 [12] = test: as above; settings: source organism: Bacillus anthracis
HLA-A*31:01 = test: as above; settings: source organism: Bacillus anthracis
[13] = source organism: Coxiella burnetii
[14] = source organism: Bacillus anthracis

Sequence: IVFMWAIHH
- Kd (HLA-B*39:01): ≥ 20 µM
- Kd (HLA-B*57:01 [1]): ≥ 20 µM
- Kd (HLA-B*18:01 [2]): ≥ 20 µM
- Kd (HLA-B*27:03): ≥ 20 µM
- Kd (HLA-A*69:01 [3]): ≥ 20 µM
- Kd (HLA-A*26:01): ≥ 20 µM
- Kd (HLA-B*51:01): ≥ 20 µM
- Kd (HLA-B*46:01 [4]): ≥ 20 µM
- Kd (HLA-A*02:12): ≥ 20 µM
- Kd (HLA-A*02:19 [5]): ≥ 20 µM
- Kd (HLA-A*11:01; source organism: Influenza A virus (A/ruddy turnstone/Delaware/67/1998(H12N4))): 0.187 µM
- Kd (HLA-A*02:03): ≥ 20 µM
- Kd (HLA-A*68:02): ≥ 20 µM

Sequence: IMALKQAGL
- Kd (HLA-A*02:19 [6]): 0.0045 µM
- Kd (HLA-A*02:01 [7]): 0.0445 µM

Sequence: ITLYEYDHF
- Kd (HLA-B*57:01 [8]; [13]): 0.13 µM
- Kd (HLA-B*15:17; [13]): 0.0126 µM
- Kd (HLA-B*07:02; [13]): ≥ 20 µM
- Kd (HLA-B*15:01; [13]): ≥ 20 µM
- Kd (HLA-B*58:01; [13]): 0.885 µM
- Kd (HLA-A*02:01 [9]; [13]): ≥ 20 µM
- Kd (HLA-A*03:01; [13]): ≥ 20 µM
- Kd (HLA-A*01:01; [13]): ≥ 20 µM
- Kd (HLA-B*27:05; [13]): ≥ 20 µM

Sequence: PTDYAKPQY
- Kd (HLA-B*40:01): ≥ 20 µM
- Kd (HLA-B*48:01): ≥ 20 µM
- Kd (HLA-B*57:01 [8]; [14]): ≥ 20 µM
- Kd (HLA-B*18:01 [10]): ≥ 20 µM
- Kd (HLA-B*15:17; [14]): ≥ 20 µM
- Kd (HLA-B*07:02; [14]): ≥ 20 µM
- Kd (HLA-A*69:01 [11]): ≥ 20 µM
- Kd (HLA-B*15:01; [14]): ≥ 20 µM
- Kd (HLA-B*08:01): ≥ 20 µM
- Kd (HLA-B*58:01; [14]): ≥ 20 µM
- Kd (HLA-A*02:01 [9]; [14]): ≥ 20 µM
- Kd (HLA-B*46:01 [12]): ≥ 20 µM
- Kd (HLA-A*11:01; [14]): ≥ 20 µM
- Kd (HLA-A*03:01; [14]): ≥ 20 µM
- Kd (HLA-A*01:01; [14]): 0.0525 µM
- Kd (HLA-B*27:05; [14]): ≥ 20 µM
- Kd (HLA-A*31:01): ≥ 20 µM
